Assay results reported in the Immune Epitope Database (IEDB).
One block for each sequence: values may come before it.

Key:
HLA-A*32:01 = assay: IEDB peptide-MHC binding, purified MHC/competitive/radioactivity; filed as Kd, often an IC50 or EC50 that approximates it; ≥ and ≤ were set here for values at or beyond the usual limits of such assays
HLA-B*44:02 = assay: as above
HLA-B*44:03 = assay: as above
HLA-A*01:01 [1] = assay: as above
HLA-A*29:02 = assay: as above
HLA-A*24:02 = assay: as above
HLA-A*30:02 = assay: as above
HLA-A*23:01 = assay: as above
HLA-A*26:01 = assay: as above
HLA-A*31:01 = assay: as above
HLA-A*03:01 [2] = assay: as above
HLA-A*68:01 = assay: as above
HLA-A*33:01 = assay: as above
HLA-A*11:01 [3] = assay: as above
HLA-B*58:01 = assay: IEDB peptide-MHC binding, purified MHC/direct/fluorescence; filed as Kd, often an IC50 or EC50 that approximates it; ≥ and ≤ were set here for values at or beyond the usual limits of such assays
HLA-B*57:01 = assay: as above; settings: source organism: Yersinia pestis Antiqua
HLA-A*01:01 [4] = assay: as above; settings: source organism: SARS-CoV1
HLA-B*15:01 = assay: as above; settings: source organism: SARS-CoV1
HLA-A*03:01 [5] = assay: as above; settings: source organism: SARS-CoV1
HLA-A*11:01 [6] = assay: as above; settings: source organism: SARS-CoV1
[7] = source organism: Dengue virus 1 Brazil/97-11/1997
[8] = source organism: Mammarenavirus tacaribeense
[9] = source organism: Dengue virus 4 Philippines/H241/1956
[10] = source organism: Dengue virus 3 Martinique/1243/1999
[11] = source organism: Lassa virus GA391
[12] = source organism: SARS coronavirus Tor2
[13] = source organism: Triticum aestivum
[14] = source organism: Dengue virus 2 Jamaica/1409/1983
[15] = source organism: Mammarenavirus machupoense
[16] = source organism: Vaccinia virus WR
[17] = source organism: Mammarenavirus guanaritoense
[18] = source organism: Dengue virus 1 Singapore/S275/1990

Sequence: KMFESTYRG
Kd (HLA-A*32:01; source organism: Dengue virus 4 Dominica/814669/1981): 907 nM

Sequence: MEIRPVKEK
Kd (HLA-B*44:02; [7]): 640 nM | Kd (HLA-B*44:03; [7]): 1010 nM

Sequence: YCDPKRFFL
Kd (HLA-A*01:01 [1]; [8]): ≥ 29100 nM | Kd (HLA-A*29:02; [8]): ≥ 78900 nM | Kd (HLA-A*24:02; [8]): 11300 nM | Kd (HLA-A*30:02; [8]): ≥ 76900 nM | Kd (HLA-A*23:01; [8]): 7530 nM | Kd (HLA-A*26:01; [8]): ≥ 77900 nM

Sequence: SETFSMGLLC
Kd (HLA-B*44:03; [9]): 82.9 nM

Sequence: KEEESEGAIW
Kd (HLA-B*44:02; [10]): 58.4 nM | Kd (HLA-B*44:03; [10]): 90.9 nM

Sequence: YCNYSRYWY
Kd (HLA-A*01:01 [1]; [11]): ≥ 34400 nM | Kd (HLA-A*29:02; [11]): 1230 nM | Kd (HLA-A*24:02; [11]): ≥ 77500 nM | Kd (HLA-A*30:02; [11]): 818 nM | Kd (HLA-A*23:01; [11]): ≥ 36900 nM | Kd (HLA-A*26:01; [11]): ≥ 77900 nM

Sequence: GPDDQIGYY
Kd (HLA-A*01:01 [1]; [12]): ≥ 79400 nM | Kd (HLA-A*29:02; [12]): 6490 nM | Kd (HLA-A*24:02; [12]): ≥ 77600 nM | Kd (HLA-A*30:02; [12]): 2450 nM | Kd (HLA-A*23:01; [12]): ≥ 77800 nM | Kd (HLA-A*26:01; [12]): 11000 nM

Kd (HLA-A*01:01 [1]; [13]): 678 nM | Kd (HLA-A*31:01; [13]): ≥ 47200 nM | Kd (HLA-A*29:02; [13]): 12000 nM | Kd (HLA-A*24:02; [13]): ≥ 70300 nM | Kd (HLA-A*03:01 [2]; [13]): ≥ 21700 nM | Kd (HLA-A*68:01; [13]): ≥ 70200 nM | Kd (HLA-A*30:02; [13]): 260 nM | Kd (HLA-A*23:01; [13]): ≥ 39000 nM | Kd (HLA-A*26:01; [13]): ≥ 102000 nM | Kd (HLA-A*33:01; [13]): ≥ 70000 nM | Kd (HLA-A*11:01 [3]; [13]): ≥ 22100 nM
Sequence: KSQVLQQSTY

Sequence: TELKYSWKTW
Kd (HLA-B*44:02; [14]): 37.9 nM | Kd (HLA-B*44:03; [14]): 23.9 nM | Kd (HLA-A*32:01; [14]): 4270 nM

Sequence: RMLINRFTM
Kd (HLA-A*32:01; [14]): 95.7 nM

Sequence: EEESEGAIW
Kd (HLA-B*44:02; [10]): 33.7 nM | Kd (HLA-B*44:03; [10]): 67.7 nM

Sequence: VTYELRYTL
Kd (HLA-A*32:01; source organism: Vaccinia virus Copenhagen): 11.9 nM

Sequence: QCGDPSSFEY
Kd (HLA-A*01:01 [1]; [15]): 500 nM | Kd (HLA-A*29:02; [15]): 600 nM | Kd (HLA-A*24:02; [15]): ≥ 70300 nM | Kd (HLA-A*30:02; [15]): 1580 nM | Kd (HLA-A*23:01; [15]): ≥ 68800 nM | Kd (HLA-A*26:01; [15]): ≥ 69700 nM

Sequence: VTPSGTWLTY
Kd (HLA-A*01:01 [1]; [12]): 66.1 nM | Kd (HLA-A*29:02; [12]): 66.1 nM | Kd (HLA-A*24:02; [12]): ≥ 57700 nM | Kd (HLA-A*30:02; [12]): 45.3 nM | Kd (HLA-A*23:01; [12]): ≥ 49100 nM | Kd (HLA-A*26:01; [12]): 392 nM

Sequence: AIMFFPRTI
Kd (HLA-A*32:01; [16]): 1.12 nM

Sequence: MANICWIYY
Kd (HLA-B*58:01; source organism: Yersinia pestis Antiqua): 43.3 nM | Kd (HLA-B*57:01): 256 nM

Sequence: HWVEITALI
Kd (HLA-A*24:02; [9]): 317 nM | Kd (HLA-A*23:01; [9]): 100 nM

Sequence: SQSDTVFDH
Kd (HLA-A*01:01 [1]; source organism: Variola virus): ≥ 23800 nM | Kd (HLA-A*29:02; source organism: Variola virus): ≥ 48300 nM | Kd (HLA-A*24:02; source organism: Variola virus): ≥ 77500 nM | Kd (HLA-A*30:02; source organism: Variola virus): ≥ 76900 nM | Kd (HLA-A*23:01; source organism: Variola virus): ≥ 44400 nM | Kd (HLA-A*26:01; source organism: Variola virus): ≥ 77900 nM

Sequence: FTILCLVPAY
Kd (HLA-A*01:01 [1]; [12]): 456 nM | Kd (HLA-A*29:02; [12]): 15.5 nM | Kd (HLA-A*24:02; [12]): ≥ 70300 nM | Kd (HLA-A*30:02; [12]): 329 nM | Kd (HLA-A*23:01; [12]): ≥ 70000 nM | Kd (HLA-A*26:01; [12]): 10.6 nM

Sequence: AWMVHRQWFF
Kd (HLA-A*24:02; [10]): 4.7 nM | Kd (HLA-B*44:02; [10]): 2210 nM | Kd (HLA-A*23:01; [10]): 9.48 nM

Sequence: ASLVMLLVHY
Kd (HLA-A*01:01 [1]; [9]): 1830 nM | Kd (HLA-A*30:02; [9]): 1900 nM | Kd (HLA-B*44:03; [9]): ≥ 70100 nM

Sequence: VPDIPELSY
Kd (HLA-A*01:01 [1]; [17]): 3070 nM | Kd (HLA-A*29:02; [17]): 11700 nM | Kd (HLA-A*24:02; [17]): ≥ 77500 nM | Kd (HLA-A*30:02; [17]): ≥ 25300 nM | Kd (HLA-A*23:01; [17]): ≥ 77700 nM | Kd (HLA-A*26:01; [17]): ≥ 49300 nM

Sequence: HEHKSTWHY
Kd (HLA-B*44:02; [18]): 19.8 nM | Kd (HLA-B*44:03; [18]): 9.11 nM

Sequence: ASISSVLTI
Kd (HLA-A*32:01; [16]): 13.3 nM

Sequence: LSDDAVVCY
Kd (HLA-A*29:02; [12]): 1000 nM | Kd (HLA-A*24:02; [12]): ≥ 77600 nM | Kd (HLA-A*30:02; [12]): 1450 nM | Kd (HLA-A*23:01; [12]): ≥ 77800 nM | Kd (HLA-A*26:01; [12]): ≥ 80300 nM | Kd (HLA-A*01:01 [4]): 17.5 nM | Kd (HLA-B*15:01): 474 nM | Kd (HLA-A*03:01 [5]): 9260 nM | Kd (HLA-B*58:01; source organism: SARS-CoV1): 300 nM | Kd (HLA-A*11:01 [6]): ≥ 22300 nM

Sequence: SAAAYFVGY
Kd (HLA-A*01:01 [1]; [12]): 311 nM | Kd (HLA-A*31:01; [12]): ≥ 26300 nM | Kd (HLA-A*29:02; [12]): 65.5 nM | Kd (HLA-A*24:02; [12]): 3870 nM | Kd (HLA-A*03:01 [2]; [12]): 89.7 nM | Kd (HLA-A*68:01; [12]): 106 nM | Kd (HLA-A*30:02; [12]): 17.7 nM | Kd (HLA-A*23:01; [12]): 6100 nM | Kd (HLA-A*26:01; [12]): 85.5 nM | Kd (HLA-A*33:01; [12]): ≥ 21500 nM | Kd (HLA-A*11:01 [3]; [12]): 32.8 nM

Sequence: MLMRVAVGI
Kd (HLA-A*32:01; [16]): 0.692 nM
